3 molecules from patent publication US20200392183A1 (Memorial Sloan Kettering, published 2020) can be followed below.

The target in the assay is T1, HLA-A0201 molecule on T2 cells (TAP-, HLA-A0201+) (human).
T1 construct: Empty, thermolabile HLA-A0201 on T2 cells; also called HLA-A2; HLA-A2 molecule
Nature of the assay: T2 stabilization assay, surface HLA-A2 by flow cytometry (BB7.2). Here is the method: T2 cells (TAP-, HLA-A0201+) were incubated overnight at 37° C. at 1×10⁶ cells/ml in FCS-free RPMI medium supplemented with 10 ug/ml human beta-2m (Sigma, St Louis, Mo., USA) in the absence (negative control) or presence peptides at various final concentrations (50, 10 and 2 ug/ml). Brefeldin A (Sigma) at 5 ug/ml was added to the cultures for the final two hrs of incubation. Then T2 cells were washed and stained with anti-HLA-A2.1 (BB7.2) mAb conjugated to FITC for 30 min at 4° C. and followed by washing with staining buffer (PBS plus 1% FBS and 0.02% azide). The expression of the HLA-A2 on the cell surface was measured by flow cytometry on a FACScalibur (Becton Dickinson) and analyzed with FlowJo 9.6.3 software.

B1: native WT1 peptide NQMNLGATL (SEQ ID NO:5) (peptide)
peptide: NQMNLGATL
notes: Synthetic 9-mer from Genemed Synthesis; also called native peptide; A24-native peptide
Consider B1, for which the binding result is “no binding (tested: 50, 10 and 2 ug/ml tested)”.
Consider NLMNLGATL (also called A24-het-1; Het24-1) [heteroclitic WT1 analogue peptide NLMNLGATL (SEQ ID NO:6)], for which the binding result is on record as “binds”.
In the case of NYMNLGATL (also called A24-het-2; Het24-2) [heteroclitic WT1 analogue peptide NYMNLGATL (SEQ ID NO:7)] it was “no binding (tested: 50, 10 and 2 ug/ml tested)”.
